Values belong to the binder of their own block, whether it stands above or below them.
Experiments:
[1] = biological target: T1, EGFR on SKOV3 and Aspc-1 tumor cells (human, UniProt P00533); experiment: flow cytometry on Aspc-1 tumor cells, anti-human IgG PE, MFI, curve fit; unit from the concentration axis and paragraph 62; the curve is barely above Isotype 2: MFI at most about 1500 [table]
T1 construct: endogenous, on the cell surface; the cell line is named under assay; also called tumor cell EGFR
Procedure: Two kinds of tumor cells, SKOV3 and Aspc-1, expressing EGFR were respectively plated in 96 well plates, with 3×10⁵ cells per well, and then the tumor cells were incubated with gradient diluted VHH-IgG4 antibody. After incubation on ice for half an hour, anti human IgG PE (Jackson Immuno Research, Code: 109-117-008, Lot:145501) was added for incubation, and then CytoFLEX flow cytometry was used for detection. The EC50 of the antibody was calculated by curve fitting.

[2] = biological target: T2, human EGFR.His antigen (Acro, Cat #EGR-H522a) (human, UniProt P00533 25-645); experiment: competition ELISA: EGFR his tag protein coated, antibody titrated together with Human EGF-mouse IgG2a Fc, bound EGF detected with HRP anti-mouse IgG, unit taken from the concentration axis (paragraph 62 says nM); OD450 falls from about 2.4 to a plateau of about 0.4 [table]
T2 construct: extracellular domain; Bought protein; also called EGFR his tag protein; full-length EGFR extracellular domain protein; not shown: His tag
Procedure: Briefly, EGFR his tag protein was diluted with PBS to 2 μg/mL, and 100 μL of the antigen was added to each well of an ELISA plate and coated overnight at 4° C. The next day, the plates were washed twice with PBST (containing 0.5% TWEEN-20), and then blocked with 3% BSA at 37° C. for 1.5 h, followed by two washes with PBST. […] VHH-IgG4 antibodies were diluted to 2000 nM and then serially diluted 4-fold for 8 gradients. […] After washing 3 times, HRP goat anti-mouse IgG (Goat anti-Mouse IgG) (H+L) antibody (Abcam, cat #ab205719) diluted at 1:3000 was added to each well, and the plate was incubated at 37° C. for 40 min. The plates were then washed 3 times with PBST, and 100 μL of TMB substrate was added to each well and allowed to react for 3-5 min. The reaction was stopped by adding 100 μL of 3N hydrochloric acid per well. After stopping the reaction, the optical density at 450/650 nm was measured using a Tecan microplate reader. The dose-response curve was plotted, and the IC50 was calculated using GraphPad Prism 8.0 software.

EC50 [1]: 3.6 nM
B1: E004 VHH-IgG4 antibody (antibody, V domains shown, not shown: a dimerising Fc or GST)
VH: EVQLVESGGGLAQSGGSLRLACEASGFPFETYAMSWARQTPGNEPEWVAGIFPDGKHTAYAHSVKGRFTISRVNANNTVYLQMDSLKPEDTAVYYCAKDLPFFATPSFYIGYWGQGTLVTVSS

IC50 [2]: 0.056 µg/mL
B2: E008 VHH-IgG4 antibody (antibody, V domains shown)
VH: EVQVVESGGGLVQSGGSLTLSCTSSGLPLLDYAIGWFRQAPGKEREAVSAISISEGSTYYTDSVRGRFTISRDNNKNKVYLRMDNLKPEDTAVYYCAADKTDIGFWLLVGGAGGGEVRYEYWGQGTQVTVSS
notes: VHH fused to IgG4 (VHH-IgG4), expressed in ExpiCHO, protein A purified; not shown: human IgG4 constant part from the pCDNA3.4-IgG4 vector

From patent US20250215092A1 (ZHEJIANG NANOMAB TECHNOLOGY CENTER, published 2025)
